Tests used:
Experiment in all cases: cell-based or functional assay
[1] = target: HIV-1 envelope glycoprotein (Env) of isolate MGRM-C-019 (HIV-1)
[2] = target: HIV-1 Env of isolate SF162 (HIV-1) (UniProt P19550)
[3] = target: HIV-1 MGRM-G-009 Env (pseudovirus) (HIV-1)
[4] = target: HIV-1 envelope glycoprotein (Env) of isolate MGRM-C-002 (HIV-1)
[5] = target: HIV-1 Env of pseudovirus MGRM-F1-012 (clade F) (HIV-1)

Chain of 1443_C16 (PG16) (TCN-116) (antibody) (VH): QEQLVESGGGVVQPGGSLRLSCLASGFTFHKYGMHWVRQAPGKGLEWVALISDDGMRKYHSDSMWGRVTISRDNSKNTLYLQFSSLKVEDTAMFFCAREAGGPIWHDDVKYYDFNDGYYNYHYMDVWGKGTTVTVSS
Chain of 1443_C16 (PG16) (TCN-116) (antibody) (VL): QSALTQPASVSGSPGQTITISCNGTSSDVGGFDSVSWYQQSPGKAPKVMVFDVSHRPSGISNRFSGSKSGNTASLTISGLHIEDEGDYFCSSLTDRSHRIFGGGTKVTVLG

Row | Substance | IC50 (µg/ml), pseudovirus neutralization [1] | IC50 (µg/ml), pseudovirus neutralization [2] | IC50 (µg/ml), pseudovirus neutralization [3] | IC50 (µg/ml), pseudovirus neutralization [4] | IC50 [5]
1 | 1443_C16 (PG16) (TCN-116) (antibody) | 0.002 µg/mL | > 50 µg/mL | > 50 µg/mL | 28.3 µg/mL | 0.003 µg/mL
2 | 1495_C14 (PGC14) (antibody) | 12 µg/mL | < 0.0025 µg/mL | > 50 µg/mL | > 50 µg/mL | > 50 µg/mL
3 | b12 (antibody) | > 50 µg/mL | 0.02 µg/mL | > 50 µg/mL | > 50 µg/mL | > 50 µg/mL
